The source of these data is patent US20180237497A1 (CANCER RESEARCH TECHNOLOGY, published 2018).

Experiment [1] concerns the target T1, human IGF2^1-67 (mature insulin-like growth factor 2) (human, UniProt P01344 25-91, biotinylated (site not stated) where immobilised on the chip (Tables 1-4)).
T1 construct: mature; also called mature IGF2; biotinylated IGF2
The experiment is described as follows: SPR kinetic, biotin-IGF2 on chip, pH 7.4. On the procedure: (§1) Final kinetic analysis of mutants by SPR was conducted using a Biacore T200 biosensor at 25° C. in either HBS-EP (10 mM HEPES pH 7.4, 150 mM NaCl, 3 mM EDTA, and 0.005% (v/v) surfactant P20) or MES-EP (20 mM MES pH 6.5, 150 mM NaCl, 3 mM EDTA, and 0.005% (v/v) surfactant P20) at a flow-rate of 40 μL min⁻¹. […] For the analysis of the Fc-domain 11^AB5 interaction, approximately 50 RU of a biotinylated IGF2:biotinylated ubiquitin mixture (1:8 proportion) was immobilized on the CM5-streptavidin chip. This interaction was also analysed by immobilizing the Fc-domain 11^AB5 and Fc-domain 11^AB5-RHH (or Fc-domain 11^I1572A as control) by Human Antibody Capture (monoclonal mouse anti-human IgG antibody immobilised on a CM5 chip by amine coupling, GE Healthcare) with and without human IgG1 Fc fragment (Bethyl Laboratories, UK) in the control flow cell. […] T200 BiaEvaluation software (GE Healthcare) was used to fit the resulting curves according to a 1:1 binding model. Steady state affinities were determined using the kinetic data, taking the response average at 5 seconds before injection end and for 5 seconds average. Thermodynamic data was performed across the temperature range of 10° C. to 30° C., van't Hoff and Erying plots generated and ΔH, −TΔS and ΔG values determined as previously described.
On the technique in general: SPR reads the build-up and loss of mass on a sensor chip optically.

Experiment [2] deals with T1, human IGF2^1-67 (mature insulin-like …). In words: SPR steady state, biotin-IGF2 on chip, pH 7.4. The procedure:
as §1

For experiment [3] the target is unchanged. The experiment is described as follows: SPR kinetic, biotin-IGF2 on chip, pH 7.4.
Text: (§2) Surface plasmon resonance (SPR) binding analysis of recombinant M6P/IGF2R domain 11 mutants interaction with IGF2. Kon indicates association (on) rate; koff, dissociation (off) rate; RU, response units. Binding to IGF2 assessed with BIAcore T200 using purified biotinylated IGF2 and IGF1 on a streptavidin biosensor chip. Recombinant proteins were expressed either in E. coli and/or P. pastoris. All the mutants in the FG and CD loops are on the domain 11^AB5 background for the AB loop unless otherwise stated. All experiments were carried out at 25° C. in HBS-EP buffer (pH 7.4), were repeated 2-5 times on two independent BIAcore chips. nd=not determined. Data for KD expressed as mean of each experiment, and means of kon and koff are shown.
as §1, with “average.” for “average. Thermodynamic data was performed across the temperature range of 10° C. to 30° C., van't Hoff and Erying plots generated and ΔH, −TΔS and ΔG values determined as previously described.”
This is another data set of the same source.

The target is the same in experiment [4]. In words: SPR steady state, biotin-IGF2 on chip, pH 7.4.
Text: as §2
as §1, with “average.” for “average. Thermodynamic data was performed across the temperature range of 10° C. to 30° C., van't Hoff and Erying plots generated and ΔH, −TΔS and ΔG values determined as previously described.”
The source holds these as a separate data set.

Broadly, the Kd is the equilibrium constant for the complex coming apart. A high value points to lower affinity. Usually koff stands for the first-order rate constant of dissociation. In general, kon refers to the second-order rate constant of association. A high value points to fast association.

Residue numbers refer to the chain shown, from its start. In names and notes the source's numbering stands. Like-named read-outs stand apart in the source and are kept apart here.

T1 sequence (P01344 25-91): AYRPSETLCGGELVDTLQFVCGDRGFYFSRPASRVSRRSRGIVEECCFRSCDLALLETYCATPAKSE

B1: domain 11^AB3 P1597H K1631W (receptor)
chain: MKSNEHDDCQVTNPSTGHLFDLSSLSGRAGFTAAYSKSGVVYMSICGENENCPPGVGACFGQTRISVGKANKRLRYVDQVLQLVYKDGSHCPSKSGLSYKSVISFVCRPEAGPTNRPMLISLDWQTCTLFFSWHTPLACEQATECSV
notes: See m5
For B1, in experiment [1], the affinity, expressed as Kd, was 17.6 nM; the koff turned out to be 0.348 s⁻¹; the kon came to 1.97e+07 M⁻¹ s⁻¹. The same molecule registered a dissociation constant Kd in experiment [2] of 18.7 nM.

B2: domain 11^AB5 Q1569R P1597H K1631W (receptor)
chain: B1 chain with S36A, S38G, G39W, V40G, Q62R
notes: See m5
Turning to B2, in experiment [1], the Kd amounted to 1.02 nM, the koff was 0.0115 s⁻¹ and the on-rate constant (kon) was 1.12e+07 M⁻¹ s⁻¹. In experiment [2], this molecule returned an equilibrium dissociation constant (Kd) of 1.95 nM.

B3: domain 11^AB5 S1600N (receptor)
chain: B1 chain with S36A, S38G, G39W, V40G, H90P, S93N, W124K
notes: See m5
Turning to B3, in experiment [3], the Kd stood at 24.4 nM, the koff was determined as 0.091 s⁻¹ and the kon stood at 3.95e+06 M⁻¹ s⁻¹. Further, the Kd in experiment [4] turned out to be 29.7 nM.

B4: domain 11^AB5 P1597L (receptor)
chain: B1 chain with S36A, S38G, G39W, V40G, H90L, W124K
notes: See m5
On to B4, for which, in experiment [1], binding was characterised by a dissociation constant (Kd) of 3.86 nM, the koff amounted to 0.015 s⁻¹ and the kon stood at 4.18e+06 M⁻¹ s⁻¹. Besides, the affinity in experiment [2], expressed as Kd, was 4.85 nM.

B5: domain 11^AB3 Q1569R P1597K (receptor)
chain: B1 chain with Q62R, H90K, W124K
notes: See m5
In experiment [1], B5 came in with a Kd of 1.34 nM, a dissociation rate constant (koff) of 0.0241 s⁻¹ and a kon of 2e+07 M⁻¹ s⁻¹. Binding in experiment [2] was put at a Kd of 2.27 nM.

B6: domain 11^AB5 Q1569R P1597K S1602H (receptor)
chain: B1 chain with S36A, S38G, G39W, V40G, Q62R, H90K, S95H, W124K
notes: See m5
With B6, in experiment [1], the Kd stood at 0.92 nM, the koff is 0.0073 s⁻¹ and the kon was 7.87e+06 M⁻¹ s⁻¹. Further, in experiment [2], the Kd stood at 2.11 nM.

B7: domain 11^AB3 P1597K S1602H (receptor)
chain: B1 chain with H90K, S95H, W124K
notes: See m5
In experiment [1], B7 showed a Kd of 3.73 nM, a koff of 0.0102 s⁻¹ and a kon of 2.74e+06 M⁻¹ s⁻¹. In experiment [2], this molecule yielded a Kd of 5.33 nM.

B8: domain 11^AB3 Q1569R P1597K S1602H G1603K (receptor)
chain: B1 chain with Q62R, H90K, S95H, G96K, W124K
notes: See m5
As for B8, in experiment [1], binding was characterised by a dissociation constant (Kd) of 0.78 nM, the koff stood at 0.0171 s⁻¹ and the on-rate constant (kon) was 2.08e+07 M⁻¹ s⁻¹. In experiment [2], the Kd is 1.62 nM.

B9: domain 11^AB5 S1600Y (receptor)
chain: B1 chain with S36A, S38G, G39W, V40G, H90P, S93Y, W124K
notes: See m5
On to B9, for which the Kd in experiment [3] and in experiment [4] was more than 200 nM throughout. In addition, the off-rate constant (koff) in experiment [3] is more than 0.2 s⁻¹.

B10: domain 11^AB5 P1597S (receptor)
chain: B1 chain with S36A, S38G, G39W, V40G, H90S, W124K
notes: See m5
In experiment [1], B10 showed a dissociation constant Kd of 4.19 nM, an off-rate (koff) of 0.0193 s⁻¹ and a kon of 5e+06 M⁻¹ s⁻¹. This molecule gave a Kd in experiment [2] of 4.9 nM.

B11: domain 11^AB5 P1597N (receptor)
chain: B1 chain with S36A, S38G, G39W, V40G, H90N, W124K
notes: See m5
In experiment [1], B11 displayed a Kd of 4.13 nM, a koff of 0.018 s⁻¹ and an association rate constant (kon) of 4.72e+06 M⁻¹ s⁻¹. Besides, the equilibrium dissociation constant (Kd) in experiment [2] came to 5.36 nM.

B12: domain 11^AB5 S1602A (receptor)
chain: B1 chain with S36A, S38G, G39W, V40G, H90P, S95A, W124K
notes: See m5
In experiment [3], B12 gave a Kd of 16.5 nM, a koff of 0.025 s⁻¹ and a kon of 1.57e+06 M⁻¹ s⁻¹. In experiment [4], this molecule registered a Kd of 19.9 nM.

B13: domain 11^AB5 S1602N (receptor)
chain: B1 chain with S36A, S38G, G39W, V40G, H90P, S95N, W124K
notes: See m5
For the molecule B13, in experiment [3], the dissociation constant (Kd) was determined as 4.75 nM, the koff is 0.0112 s⁻¹ and the kon is 2.38e+06 M⁻¹ s⁻¹. In experiment [4], this molecule registered a Kd of 7.93 nM.

B14: domain 11^AB5 P1597A (receptor)
chain: B1 chain with S36A, S38G, G39W, V40G, H90A, W124K
notes: See m5
In experiment [1], B14 gave a Kd of 9.07 nM, an off-rate constant (koff) of 0.0174 s⁻¹ and an association rate constant (kon) of 1.9e+06 M⁻¹ s⁻¹. This molecule also gave a Kd in experiment [2] of 12.4 nM.

B15: domain 11^AB5 S1600V (receptor)
chain: B1 chain with S36A, S38G, G39W, V40G, H90P, S93V, W124K
notes: See m5
With B15, in experiment [3], the Kd was more than 200 nM and the koff was more than 0.2 s⁻¹. Also, in experiment [4], the dissociation constant Kd was more than 200 nM.

B16: domain 11^AB5 P1597K S1602H (receptor)
chain: B1 chain with S36A, S38G, G39W, V40G, H90K, S95H, W124K
notes: See m5
In experiment [1], B16 returned a Kd of 4.62 nM, a koff of 0.0096 s⁻¹ and a kon of 2.09e+06 M⁻¹ s⁻¹. The molecule also registered a Kd in experiment [2] of 7.85 nM.

B17: domain 11^AB5 P1597K (receptor)
chain: B1 chain with S36A, S38G, G39W, V40G, H90K, W124K
notes: See m5
Turning to B17, in experiment [1], the Kd is 1.94 nM, the koff is 0.012 s⁻¹ and the kon was 9.54e+06 M⁻¹ s⁻¹. For the same molecule, in experiment [2], binding was characterised by a dissociation constant (Kd) of 2.21 nM.

B18: domain 11^AB5 T1633A (receptor)
chain: B1 chain with S36A, S38G, G39W, V40G, H90P, W124K, T126A
notes: See m5; HI loop mutant
Take B18: in experiment [3], the Kd was 26.4 nM, the koff came out at 0.0196 s⁻¹ and the kon stood at 800000 M⁻¹ s⁻¹. Also, in experiment [4], the Kd is 53.5 nM.

B19: domain 11^AB3 Q1569R P1597K S1602H (receptor)
chain: B1 chain with Q62R, H90K, S95H, W124K
notes: See m5
B19: in experiment [1], binding was characterised by a dissociation constant (Kd) of 0.79 nM, the koff is 0.016 s⁻¹ and the kon worked out at 2.01e+07 M⁻¹ s⁻¹. In experiment [2], this molecule came in with a Kd of 1.39 nM.

B20: domain 11^AB5 Q1569R P1597K (receptor)
chain: B1 chain with S36A, S38G, G39W, V40G, Q62R, H90K, W124K
notes: See m5
With B20, in experiment [1], the affinity, expressed as Kd, was 0.95 nM; the koff was 0.0091 s⁻¹; the kon is 9.59e+06 M⁻¹ s⁻¹. Besides, the equilibrium dissociation constant (Kd) in experiment [2] worked out at 1.69 nM.

B21: domain 11^AB5 P1597Q (receptor)
chain: B1 chain with S36A, S38G, G39W, V40G, H90Q, W124K
notes: See m5
In experiment [1], B21 had a Kd of 3.83 nM, a koff of 0.0203 s⁻¹ and a kon of 6.53e+06 M⁻¹ s⁻¹. Also, in experiment [2], the Kd is 4.51 nM.
